Literature values, collected in article PMC4041481.

Molecular target: His37 (UniProt position 37, IIGILHLILWI)
Details: M2 tetramer assembled in a lipid bilayer

Matrix protein 2 (M2 proton channel) (Influenza A virus (strain not stated))
pKa: <5.0
